For one experiment, the target named is T1, TLR8 (Homo sapiens, UniProt Q9NR97).
T1 construct: expressed in transfected cells; host or cells: HEK293 (transient Nucleofection, Amaxa)
T1 sequence (Q9NR97 27-1041): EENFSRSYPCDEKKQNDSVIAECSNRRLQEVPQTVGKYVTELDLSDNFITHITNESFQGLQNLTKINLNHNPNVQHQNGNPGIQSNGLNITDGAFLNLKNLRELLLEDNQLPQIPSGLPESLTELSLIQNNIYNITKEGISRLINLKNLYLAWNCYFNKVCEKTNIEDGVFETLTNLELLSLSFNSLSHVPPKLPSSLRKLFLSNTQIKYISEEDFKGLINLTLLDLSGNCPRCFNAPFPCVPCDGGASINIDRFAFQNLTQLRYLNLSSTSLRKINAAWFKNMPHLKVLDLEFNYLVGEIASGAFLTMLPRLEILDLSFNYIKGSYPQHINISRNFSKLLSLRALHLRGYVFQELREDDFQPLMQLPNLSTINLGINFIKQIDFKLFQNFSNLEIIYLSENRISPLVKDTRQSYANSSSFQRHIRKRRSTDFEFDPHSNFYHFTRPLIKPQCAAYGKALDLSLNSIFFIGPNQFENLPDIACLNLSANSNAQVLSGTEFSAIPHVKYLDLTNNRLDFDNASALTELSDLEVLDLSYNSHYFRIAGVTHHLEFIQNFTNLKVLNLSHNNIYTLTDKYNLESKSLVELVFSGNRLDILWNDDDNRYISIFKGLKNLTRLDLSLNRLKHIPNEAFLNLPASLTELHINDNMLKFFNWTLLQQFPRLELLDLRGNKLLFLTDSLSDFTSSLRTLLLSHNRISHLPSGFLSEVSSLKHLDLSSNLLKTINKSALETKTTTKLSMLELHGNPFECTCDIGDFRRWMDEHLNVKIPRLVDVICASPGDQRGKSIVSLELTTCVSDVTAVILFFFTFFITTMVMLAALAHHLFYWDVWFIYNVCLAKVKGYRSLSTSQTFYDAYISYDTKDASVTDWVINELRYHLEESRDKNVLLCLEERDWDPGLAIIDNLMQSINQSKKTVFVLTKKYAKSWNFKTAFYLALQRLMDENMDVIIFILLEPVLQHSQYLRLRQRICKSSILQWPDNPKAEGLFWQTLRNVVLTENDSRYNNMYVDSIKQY
The experiment is described as follows: TLR8-transfected HEK293 cells, NF-kB luciferase reporter. The class given is cell-based. The conditions noted are these: R-848 2 μg/ml; data not shown. Here is the method: HEK293 cells are detached by trypsin from the plastic surface of the culture bottle, extensively washed with calcium and magnesium-free PBS, counted and adjusted at the concentration 1×10^6 cells/tube in polypropylene V-bottomed tubes. After the final wash, the cells are pelleted and 100 μl transfection buffer (Amaxa) is added together with […], TLR7, TLR8 or TLR9-encoding and ELAM-1 promoter NF-kB luciferase reporter plasmids. The mixture thus obtained is transferred in special cuvettes and transient transfection is obtained in a special apparatus which is able to directly introduce genetic material into the nucleus (Nucleofection®, Amaxa GmbH). The cells are then recovered and cultured at 1×10^5/ml in 48-flat bottomed plates in E-MEM medium plus 5% foetal calf serum for 18 hrs. […] Finally the luciferase activity is measured in the cellular lysates by a commercial kit (Promega).

For a further experiment, the system named is purified B cells. The experiment is described as follows: B cell activation (tritiated thymidine incorporation). The class given is cell-based, human. The note with it: for Stimulation index (mean ± SE): B cell proliferation. Here is the method:
Circulating mononuclear cells (MNC) are isolated by Ficoll-Hypaque density gradient from buffy coats of healthy donors (Servizio Immunotrasfusionale e terapie cellulari, Azienda Ospedaliero Universitaria Pediatrica A. Meyer, Firenze). 200×10^6 MNC are then separated using the commercial CD19 isolation kit (Miltenyi) by the addition of 400 μl iron microbead-bound anti-CD19 monoclonal antibody followed by magnetic separation on LS column. 20×10^6 B cells are isolated by positive selection and are extensively washed by the use of calcium- and magnesium-free PBS and cultured in triplicates at the concentration of 1×10^6/ml/well in complete medium plus 10% foetal calf serum in 96-U plates. […] Plates are incubated in humidified atmosphere at 37° C. for 72 hrs and at the end 0.5 μCi tritiated thymidine is added to each well for further 16 hrs. The incorporated radioactivity is measured as already described in step (f) of Example 4.
(In general: Dividing cells build labelled thymidine or BrdU into new DNA.)

Experiment [1] concerns NF-κB p50 subunit in purified CD14+ cells. The experiment in a line: NF-κB activation: nuclear p50 in purified CD14+ cells. The note with it: 2 hrs, allergens and conjugates 10 μg/ml, R-848 2 μg/ml. The class given is cell-based, human. The protocol: The tubes are then incubated for 2 hrs in 5% CO2 humidified atmosphere at 37° C. and then washed with 10 ml PBS, centrifuged at 1500 rpm repeating the treatment thrice and the cellular pellet finally dried by the use of a micropipette and stored at −80° C. up to the assay. […] Two different protein amounts (0.5 and 2 μg) were incubated in 96w plates coated by the immobilized oligonucleotide containing the activated NF-κB consensus site (5′-[…]-3′), followed by the incubation with an antibody recognizing an epitope of the NF-κB p50 subunit. An HRP-conjugated secondary antibody was added to single wells and the colorimetric read-out was quantified by spectrophotometry. Values are reported as Optical Density. […] For the specificity of the assay, a wild-type consensus oligonucleotide was used as a competitor for NF-κB binding.

In experiment [2] the test system is allergen-specific T cell lines. The experiment in a line: Functional phenotype of allergen-specific cells with different ratios between allergen and modified adenine. The conditions noted are these: T cell lines from atopic donors, Example 5 step d. The class given is cell-based, human.

For `CCOCc1nc2c(N)nc3ccccc3c2n1CC(C)(C)O` [Conj R-848, reference compound], the “NF-κB expression in TLR8-transfected HEK293 cells” value at TLR8 is “able to induce NF-κB expression”. Besides, the “proliferation of purified B lymphocytes (in words)” value in the experiment on purified B cells (thymidine incorporation) is “high levels of incorporation of radioactive thymidine”.

As to `Nc1nc(SCCCC(=O)ON2C(=O)CCC2=O)nc2c1nc(O)n2Cc1ccccc1` [SA-26E, 4-(6-Amino-9-benzyl-8-hydroxy-9H-purin-2-ylsulfanyl)-butyric acid 2,5-dioxo-pyrrolidin-1-yl ester], the “p50 nuclear expression (NF-κB activation)” value in experiment [1] is “completely inactive”.

B1: nDer p2: purified natural allergen Der p2, major allergen from the house dust mite Dermatophagoides pteronyssinus (protein, UniProt P49278 18-146, looked up)
Mite group 2 allergen Der p 2: DQVDVKDCANHEIKKVLVPGCHGSEPCIIHRGKPFQLEAVFEANQNTKTAKIEIKASIDGLEVDVPGIDPNACHYMKCPLVKGQQYDIKYTWNVPKIAPKSENVVVTVKVMGDDGVLACAIATHAKIRD
modifications: natural purified
notes: purified natural allergen Der p2, major allergen from the house dust mite Dermatophagoides pteronyssinus
Turning to B1, the “Stimulation index (mean ± SE)” value in the experiment on purified B cells (concentration 0.5 μg/ml) is 1.6 ± 0.4; in the experiment with purified B cells (concentration 2.5 μg/ml), 1.7 ± 0.2; in the experiment on purified B cells (concentration 10 μg/ml), 1.7 ± 0.1. The “% of cells expressing IFN-gamma+” value in experiment [2] amounted to 5%. Moreover, the “% of cells expressing IL-4+” value in experiment [2] is listed as 55.5%. The “p50 nuclear expression (NF-κB activation)” value in experiment [1] was “inactive”.

(Values after patent US8822407B2, “Preparation of conjugates comprising adenine derivatives and allergenic proteins and their use for specific immunotherapy of allengenic diseases” (Universita' Degli Studi di Firenze, priority 2010, dated 2014).)
